Data reported in patent US8299213B2, “Synthetic or natural peptides binding protein phosphatase 2A, identification method and uses” (Universite Pierre et Marie Curie (Paris 6), priority 2001, dated 2012).
“Also recorded” adds a separate entry of the source.

Legend:
subunit A of PP2A = target: T1, subunit A of PP2A (Homo sapiens, UniProt P30153); experiment: SPOT peptide membrane screened with structural subunit A of PP2A; format: binding; details: peptides on cellulose membrane, 4 μg/ml purified protein, antibody against protein A (FIGS. 1A, 2A)
T1 construct: made in house; host or cells: E. coli
T1 sequence (P30153 whole entry): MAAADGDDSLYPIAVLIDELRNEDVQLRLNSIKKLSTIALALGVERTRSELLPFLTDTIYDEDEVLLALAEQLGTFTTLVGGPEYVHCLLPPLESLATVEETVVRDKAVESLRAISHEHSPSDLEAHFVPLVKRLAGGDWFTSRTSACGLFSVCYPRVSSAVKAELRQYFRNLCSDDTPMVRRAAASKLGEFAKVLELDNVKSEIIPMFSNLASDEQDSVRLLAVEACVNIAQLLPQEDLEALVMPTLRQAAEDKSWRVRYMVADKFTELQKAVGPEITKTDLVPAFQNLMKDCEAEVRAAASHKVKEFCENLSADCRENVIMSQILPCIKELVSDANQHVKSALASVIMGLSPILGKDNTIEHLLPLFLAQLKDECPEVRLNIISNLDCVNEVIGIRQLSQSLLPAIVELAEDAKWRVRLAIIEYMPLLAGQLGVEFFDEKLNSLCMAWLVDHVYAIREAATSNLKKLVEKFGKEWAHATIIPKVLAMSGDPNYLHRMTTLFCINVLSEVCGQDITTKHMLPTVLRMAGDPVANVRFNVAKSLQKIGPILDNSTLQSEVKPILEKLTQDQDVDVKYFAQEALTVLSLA
Text: A recombinant structural subunit of PP2A was expressed in E. coli and purified using the protocol described by Cohen et al (Cohen P, Alemany S, Hemmings B A, Resink T J, Stralfors P, Tung H Y. Protein phosphatase-1 and protein phosphatase 2A from rabbit skeletal muscle. Methods Enzymol 1988 159, 390-408), or that described by Bosch et al (Bosch M, Cayla X, Van Hoof C, Hemmings B A, Ozon R, Merlevede W, Goris J. the PR55 and PR65 subunits of protein phosphatase 2A from Xenopus laevis. Molecular cloning and developmental regulation of expression. Eur J Biochem 1995, 230, 1037-45).
(§1) Binding peptides derived from CK2α proteins (encoded by T parva protozoa) or Vpr protein (encoded by the HIV-1 virus) with PP2A were identified using the “spot peptides” technique described above (Frank and Overwing, 1996, Meth Mol Biol 66, 149-169).
(§2) The method consisted of synthesizing dodecapeptides, in situ on a cellulose membrane, at defined positions wherein the series of the sequence covered the whole sequence of the protein of interest (Vpr or CK2α). The peptides of two consecutive spots on the membrane overlap with an overlapped by two amino acids.
(§3) Sixty-eight (68) dodecapeptides covering the whole sequence of the Vpr protein of HIV-1 and two hundred and five (205) dodecapeptides covering the sequence for the CK2α protein of Theileria were synthesized and covalently bound to cellulose membranes.
(§4) Each prepared membrane was first saturated for 1 hour at ambient temperature with TBS containing 5% skimmed Régilait (milk) and 3% BSA then incubated overnight in the same buffer in the presence of 4 μg/ml of purified protein (subunit A of PP2A or holoenzyme PP2A1).
(§5) The membranes were washed 5 times for 15 minutes with a conventional TBST buffer (TBS+TWEEN) used for incubation then incubated a further 1 hour at ambient temperature with a second antibody (coupled with peroxidase).

Hela cells [1] = experiment: Cell penetration test (biotinylated peptide-avidine peroxidase complexes); format: cell-based, human; details: biotinylated peptides, 4 hours incubation (FIG. 3)
Experimental: We analyzed the Hela line, which is derived from a human cervical carcinoma.
0.1 M Tris buffer, pH 8 containing 0.5% NP40.
25.7 ml of 0.2 M dibasic sodium phosphate+24.3 ml of 0.1 M citric acid+50 ml distilled water; adjust to pH 5.0.
4 moles of peptides were incubated with 1 mole of avidine-peroxidase. 20 minutes at ambient temperature.
Hela cells (10^4 in […]) were seeded into 96-well plates (flat bases) with complete DMEM medium in the presence of 2.5% penicillin/ampicillin and 10% foetal calf serum. After incubating overnight at 37° C. in a CO2 oven (5%), different dilutions of complexes (biotinylated-avidine peroxidase peptides) were added. After incubating for 4 hours the supernatant was aspirated and the cells were washed 3 times with PBS, trypsinated and taken up for counting in PBS. After counting, the cells were taken up in 300 μl of lysis buffer.
50 μl of OPD buffer was incubated in a 96 well ELISA plate with 50 μl of lysis buffer or 50 μl of cell lysate (in general, different successive dilutions were carried out (to ½)). In order to reveal, 50 μl of OPD solution was added (in the dark). The reaction (about 10 min) was stopped with 100 μl of 1N HCl.
The peroxidase activity was determined by reading at 490 nm in the ELISA reader (reference filter at 620 nm) and the quantity of peroxidase in the lysates was calculated from the calibration curve then extrapolated to the same number of cells (10^3 or 10^4): Peptide molecules=(6*10^23/MW of peptide)*ng of PO*10^−9. A.4. Cell Viability Test

holoenzyme PP2A1 = target: T2, holoenzyme PP2A1 (Sus scrofa, UniProt P54612); experiment: SPOT peptide membrane screened with holoenzyme PP2A1; format: binding, pig; details: for binding to the trimeric holoenzyme PP2A1: peptides on cellulose membrane, 4 μg/ml purified protein, antibodies against proteins A, B and C (FIGS. 1B, 2B)
T2 construct: Trimeric PP2A1 protein was purified to homogeneity from pig brain; from tissue; host or cells: pig brain
T2 sequence (P54612 whole entry): as the sequence (P30153 whole entry) above, with S324T counted along it
T2 sequence (P67776 whole entry partner): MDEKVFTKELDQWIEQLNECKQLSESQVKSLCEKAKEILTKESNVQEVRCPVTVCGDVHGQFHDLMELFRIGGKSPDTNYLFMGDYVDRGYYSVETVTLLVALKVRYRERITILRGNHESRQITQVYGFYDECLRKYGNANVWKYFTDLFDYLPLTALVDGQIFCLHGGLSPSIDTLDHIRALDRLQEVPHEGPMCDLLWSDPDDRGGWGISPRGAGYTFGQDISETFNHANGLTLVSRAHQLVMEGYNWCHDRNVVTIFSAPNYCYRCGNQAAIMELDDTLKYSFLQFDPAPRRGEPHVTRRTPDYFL
Text: Trimeric PP2A1 protein was purified to homogeneity from pig brain.
as §1, §2, §3, §4, §5

Hela cells [2] = experiment: Cell viability test (MTT); format: cell-based, human; details: 72 h, increasing peptide concentrations (FIG. 4)
Experimental: Hela cells (10^4 for 100 μl) were seeded into 96-well plates (flat bases) with complete DMEM medium containing 2.5% penicillin/ampicillin and 10% foetal calf serum. After incubating overnight at 37° C. in a CO2 oven (5%), the cells were cultivated in the presence of different peptide concentrations. After incubating for 72 h, the medium containing the peptides was aspirated and the MTT at 0.5 mg/ml (diluted in DMEM alone) was added in an amount of 100 μl per well. Incubation was carried out in the dark at 37° C. for 30 minutes then the MTT was aspirated off and 50 μl of DMSO was added to all wells. It was necessary to wait ten minutes for complete lysis of the cells and to agitate the lysate well to homogenize dissolution of the reaction product in the wells. The plates were then read at 570 nm with a 690 nm reference filter.

For “SRIGIIQQRRTR (Human immunodeficiency virus) [SEQ ID No: 11]”, the “binding to the structural subunit A of PP2A” value (“binding … of PP2A” for short) (subunit A of PP2A) was “binding the subunit A of PP2A”.
For “ALIRILQQLLFI (Human immunodeficiency virus) [SEQ ID No: 7]”, the “binding … of PP2A” value (subunit A of PP2A) was “binding the subunit A of PP2A”.
In the case of “(RQKRLI)3 (RQKRLIRQKRLIRQKRLI; listed as Theileria parva) [FD7]”, the “intracellular penetration into Hela cells” value (Hela cells [1]) is reported as “possibility of penetrating into the Hela cell”.
With VEALIRILQQLLFIHFRI [HIV-1 Vpr site 2] the “binding … of PP2A” value (subunit A of PP2A) was “containing a binding site”.
In the case of “RHSRIGIIQQRR (Human immunodeficiency virus) [SEQ ID No: 10]”, the “binding … of PP2A” value (subunit A of PP2A) is reported as “binding the subunit A of PP2A”.
With “IGIIQQRRTRNG (Human immunodeficiency virus) [SEQ ID No: 12]” the “binding … of PP2A” value (subunit A of PP2A) was “binding the subunit A of PP2A”.
With “IRILQQLLFIHF (Human immunodeficiency virus) [SEQ ID No: 8]” the “binding … of PP2A” value (subunit A of PP2A) was “binding the subunit A of PP2A”.
For VEALIRILQQLL [SEQ ID No: 6], the “binding … of PP2A” value (subunit A of PP2A) was “binding the subunit A of PP2A”.
For “(RHSRIG)3 (RHSRIGRHSRIGRHSRIG; listed as Theileria parva) [FD11]”, the “intracellular penetration into Hela cells” value (Hela cells [1]) was “possibility of penetrating into the Hela cell”.
With “LIDWGLAEFYHP (listed as Theileria parva) [peptide 131]” the “binding PP2A” value (holoenzyme PP2A1; FIG. 2, subunit A or holoenzyme not given) was “capable of binding PP2A”.
RHSRIGVTRQRRARNG [FD13] was tested, and the “effect on viability of Hela cells” value (Hela cells [2]) was “absence of the biological effect” and the “intracellular penetration into Hela cells” value (Hela cells [1]) was “possibility of penetrating into the Hela cell”.
In the case of RHSRIGIIQQRRTRNG [FD14], the “effect on viability of Hela cells” value (Hela cells [2]) is reported as “clearly affects the viability of Hela cells”, the “binding … of PP2A” value (subunit A of PP2A) is reported as “containing a binding site” and the “intracellular penetration into Hela cells” value (Hela cells [1]) is reported as “possibility of penetrating into the Hela cell; also recorded: penetrating peptides”. The “binding to the trimeric holoenzyme PP2A1” value (holoenzyme PP2A1) was “containing a binding site”.
With “TVTKDKCVIKILKPVKKKKIKREIKILQNL (listed as Theileria parva) [T parva CK2α site 2]” the “binding … of PP2A” value (subunit A of PP2A) was “containing a binding site”.
“RKIGRGKFSEVFEG (listed as Theileria parva) [T parva CK2α site 1]” was tested, and the “binding … of PP2A” value (subunit A of PP2A) was “containing a binding site”.
In the case of “KILRLIDWGLAEFYHP (listed as Theileria parva) [T parva CK2α site 3]”, the “binding … of PP2A” value (subunit A of PP2A) is reported as “containing a binding site” and the “binding to the trimeric holoenzyme PP2A1” value (holoenzyme PP2A1) is reported as “containing a binding site”.
“ILQQLLFIHFRI (Human immunodeficiency virus) [SEQ ID No: 9]” was tested, and the “binding … of PP2A” value (subunit A of PP2A) was “binding the subunit A of PP2A”.
In the case of “(AHSRIG)3 (AHSRIGAHSRIGAHSRIG; listed as Theileria parva) [FD12]”, the “effect on viability of Hela cells” value (Hela cells [2]) is reported as “affects the viability of the Hela cell”.
“RRRRRRRSRGRRRRTY (listed as Theileria parva) [FD8, peptide derived from protamine]” was tested, and the “effect on viability of Hela cells” value (Hela cells [2]) was “affects the viability of Hela cells” and the “intracellular penetration into Hela cells” value (Hela cells [1]) was “possibility of penetrating into the Hela cell; also recorded: penetrating peptides”.
For “VKKKKIKREIKI (listed as Theileria parva) [FD6]”, the “effect on viability of Hela cells” value (Hela cells [2]) was “does not affect the viability” and the “intracellular penetration into Hela cells” value (Hela cells [1]) was “possibility of penetrating into the Hela cell”.
